Data: patent publication US20250313819A1

Molecular target: poly-GA dipeptide repeat protein (human)
Test: MSD sandwich ELISA on neuron lysate, C9-patient vs KO line

For anti-GA antibody (MABN889, Millipore), the ratio of signal from the C9-patient vs KO line was 2.
